Paper PMC9555685, “A single transcription factor facilitates an insect host combating Bacillus thuringiensis infection while maintaining fitness”

Key:
Conditions in all cases: protein: recombinant; tags: N-terminal His; label: 5'-biotin
[1] = biological target: T1, FTZ-F1 T288D(P) (phosphomimic) (Plutella xylostella, UniProt A0ABQ7R810 1-557, T288D); assay: EMSA; 20 fmol probe; cold competitor 100 and 500 fmol; EMSA: 25 °C, 30 min, 20 fmol biotin probe, LightShift Chemiluminescent EMSA Kit; buffer, salt and pH not stated
T1 sequence (A0ABQ7R810 entry or part of it T288D | T288D T288D): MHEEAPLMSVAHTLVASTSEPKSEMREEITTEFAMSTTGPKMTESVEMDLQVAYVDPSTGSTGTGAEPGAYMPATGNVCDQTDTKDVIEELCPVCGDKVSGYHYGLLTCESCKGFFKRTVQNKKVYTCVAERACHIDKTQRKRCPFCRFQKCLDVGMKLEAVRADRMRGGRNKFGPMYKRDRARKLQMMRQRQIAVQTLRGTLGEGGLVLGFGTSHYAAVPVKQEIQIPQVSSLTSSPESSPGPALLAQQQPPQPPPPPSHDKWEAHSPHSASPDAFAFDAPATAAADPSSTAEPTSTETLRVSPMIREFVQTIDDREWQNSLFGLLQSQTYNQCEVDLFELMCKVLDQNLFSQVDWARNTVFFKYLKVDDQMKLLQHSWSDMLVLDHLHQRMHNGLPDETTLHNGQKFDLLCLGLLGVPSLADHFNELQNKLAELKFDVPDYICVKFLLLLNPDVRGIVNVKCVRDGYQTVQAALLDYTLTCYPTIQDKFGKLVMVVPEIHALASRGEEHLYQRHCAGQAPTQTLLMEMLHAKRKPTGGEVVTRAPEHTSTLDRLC

[2] = biological target: T2, FTZ-F1 T288A(-P) (non-phosphorylated form) (Plutella xylostella, UniProt A0ABQ7R810 1-557, T288A); assay: EMSA; 20 fmol probe; EMSA: 25 °C, 30 min, 20 fmol biotin probe, LightShift Chemiluminescent EMSA Kit; buffer, salt and pH not stated
T2 sequence (A0ABQ7R810 entry or part of it T288A | T288A T288A): as the sequence (A0ABQ7R810 entry or part of it T288D | T288D T288D) above, with D288A counted along it

[3] = biological target: T2, FTZ-F1 T288A(-P) (non-phosphorylated …); assay: EMSA; 20 fmol probe; cold competitor 100 and 500 fmol; EMSA: 25 °C, 30 min, 20 fmol biotin probe, LightShift Chemiluminescent EMSA Kit; buffer, salt and pH not stated
[4] = biological target: T1, FTZ-F1 T288D(P) (phosphomimic); assay: EMSA; 20 fmol probe; EMSA: 25 °C, 30 min, 20 fmol biotin probe, LightShift Chemiluminescent EMSA Kit; buffer, salt and pH not stated

B1: FBSP (ABCC1 promoter) (dsDNA)
DNA 1: GTACAGTCAC
DNA 2: GTGACTGTAC
- binding result [1]: binds
- binding result [2]: no binding

B2: FBS (ABCC2 promoter) (dsDNA)
DNA 1: CTGTCCTGTAA
DNA 2: TTACAGGACAG
- binding result [3]: binds
- binding result [4]: no binding
